Test system: MS2 coat protein
Test: apparent KD of MS2 coat protein; designed switch direction (-1 OFF switch, 1 ON switch): -1; higher = weaker reporter binding
Method in brief: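 Normalised cluster fluorescence was curve-fitted, and each design's median over clusters is its apparent KD. Before this, SNAP-549-labelled MS2 coat protein was titrated from 0.7 or 1.5 nM, doubling to 3 µM, over RNA switches transcribed on Illumina chips by stalled E. coli RNA polymerase. Titrations had no input, 200 uM small-molecule ligand, or an oligonucleotide input, and steps lasted 0.8–1.5 h (lowest) to 10–20 min (highest).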

[1] = Eterna round: R95, input ligand: FMN 200 uM
[2] = Eterna round: R95, input ligand: microRNA oligo, concentration not stated
[3] = Eterna round: R95, input ligand: none
[4] = input ligand: microRNA oligo, concentration not stated

| Sequence | apparent KD of MS2 coat protein [1] [nM] | apparent KD of MS2 coat protein [2] [nM] | apparent KD of MS2 coat protein [3] [nM] | apparent KD of MS2 coat protein (input ligand: FMN 200 uM) [nM] | apparent KD of MS2 coat protein (input ligand: none) [nM] | apparent KD of MS2 coat protein [4] [nM] |
| --- | --- | --- | --- | --- | --- | --- |
| AGUUGGCGAGGAUAUACAUGAGGAUCACCCAUGUGAGAGAAAAAAGUGAGGAAGAAAAGUAGAAGGCGCUGACC [salish99_ex3_r3_041] (puzzle: Exclusion 3) | 245 | 49.8 | 81.8 | – | – | – |
| AGUUGGCGAGGAUAUACAUGAGGAUCACCCAUGUGAGAGAUACUAGUGAGGUCGAUUAGUAGAAGGCGCUGACG [Mat - Exclusion 3 - Mod of JL D76] (puzzle: Exclusion 3) | 1170 | 25.3 | 49.3 | – | – | – |
| AGUUGGGCAGGAUAUACAUGAGGAUCACCCAUGUGAGAAAUACUAGUGAGGUCGAUUAGUAGAAGGGCCUGACA [Mat - Exclusion 3 - Eli Mod - D30] (Eterna round: R97, puzzle: Exclusion 3) | – | – | – | 244 | 31.2 | – |
| AUAAAACAUGAGGAUCACCCAUGUCAGGAUAUACGACUCCAACCAAACUGCUUGGACCGUAGAAGGGACAAGGG [Exclusion 1 (MOD2 Esqu)] (Eterna round: R97, puzzle: Exclusion 1) | – | – | – | 140 | 277 | – |
| AUAAAGCAAGCAUGGUCCCACAUGAGGAUCACCCAUGUGUUCGUCUUAUAGGCUGCUGAGGCUUUUGCCUCGGUGGC [LRO Sensor-off var1-07 loose mod of D91 from Mat747] (Eterna round: R97, puzzle: Sensor, turn-off variant 1) | – | – | – | 155 | 179 | – |
| AUAAAUCAUGUAGGAUAUGCGUGGCAAAGCUAUGCAGAAGGACAUGAGGAUCACCCAUGUGCUUCCGUCUGAGAACAGACGGUA [Mat - Exclusion NG 1 - Mod of JL - D24] (Eterna round: R96, puzzle: Exclusion NG 1) | – | – | – | 130 | 82.3 | 61.6 |
| AUAACAAGCUUUUUGUUCGUAGAACAUGACGCUCGAGUCACAUGAGGAUCACCCAUGUCAUCCAGAUUGAUAGUUGA [JR_SV3TOV2_Sub059] (puzzle: Sensor v3, turn-off variant 2) | 35.5 | 47.3 | 44.3 | – | – | – |
| AUAAGGCUAGGAUAUGCAUGUGGCACAGCUCAGAAAAUAAGACAUGAGGAUCACCCAUGUAGAAGGAGCAUGCC [EX2 A.30] (Eterna round: R97, puzzle: Exclusion 2) | – | – | – | 19.4 | 16.2 | – |
| AUAAUAAAGGAGGAUAUCGUUACGGAAACGUAACGAGAAGGUCUAACAUGAGGAUCACCCAUGUUCCUCAAAUA [Mat - Exclusion 6 - Eli Mod - D53] (puzzle: Exclusion 6) | 49.9 | 36.4 | 37.4 | – | – | – |
| AUAAUGUAAGGAUAUCAGUCGUAAUUUAAUUUAAUAUCGACUGAGAAGGUACAUGAGGAUCACCCAUGUGGUCA [E4/9-B2] (Eterna round: R97, puzzle: Exclusion 4) | – | – | – | 148 | 574 | – |
| AUAAUUUAAGUGAGGAUAUACCUAUGGAAACAUAGGUAGAAGGCACAUGAGGAUCACCCAUGUUCCUAUACAAA [Fiskers BMX 4 - 1] (puzzle: Brourd's mod of Exclusion 4) | 16.5 | 12.7 | 9.08 | – | – | – |
| AUAAUUUAAGUGAGGAUAUACCUAUGGAAACAUAGGUAGAAGGCACAUGAGGAUCACCCAUGUUUUUACACAAA [Fiskers BMX 4 - 2] (puzzle: Brourd's mod of Exclusion 4) | – | 18.1 | – | – | – | – |
| AUACCACGAGGAUAUCGUCUAUAUUACAUGAGGAUCACCCAUGUUAUAUUUGUAAUGUUUCGAGAAGGCGUGUUUU [JR_E5_Sub081] (puzzle: Exclusion 5) | – | 14.4 | – | – | – | – |
| AUACCAUGCCGCCUAAUAGCUUUUUGCUCGUCUUAUAAAACAUGAGGAUCACCCAUGUAAAACAUGUGGCGUGACCC [Maridi] (Eterna round: R96, puzzle: Sensor v3, turn-off variant 2) | – | – | – | 422 | 329 | 52.9 |
| AUACCAUGCCGCCUAAUAGCUUUUUGCUCGUCUUAUAAAACAUGAGGAUCACCCAUGUAAAACAUGUGGCGUGACCC [Maridi] (puzzle: Sensor v3, turn-off variant 2) | 163 | 12.5 | 97.4 | – | – | – |
| AUACCCAGAGGAUAUGCCGCUGGGUGCCCUCUGCAUAAAACACUUGAGGAUCACCCAAGUAGAAGGCUGGGCUC [Leiseses] (Eterna round: R97, puzzle: Exclusion 2) | – | – | – | 173 | 78.1 | – |
| AUAGCUCGUGUUAGGAUAUCCGCAUAUUUUACAUAGGAGAAGGAACAUGAGGAUCACCCAUGUAAUAGAAAAGA [Maenri] (puzzle: Brourd's mod of Exclusion 4) | 138 | 101 | 74.7 | – | – | – |

| Sequence | apparent KD of MS2 coat protein [1] [nM] | apparent KD of MS2 coat protein [2] [nM] | apparent KD of MS2 coat protein [3] [nM] | apparent KD of MS2 coat protein (input ligand: FMN 200 uM) [nM] | apparent KD of MS2 coat protein (input ligand: none) [nM] | apparent KD of MS2 coat protein [4] [nM] |
| --- | --- | --- | --- | --- | --- | --- |
| AUAUAGAUAGUCAGGAUAUACUAGUGAUAACAGUAGUAGAAGGGACAUGAGGAUCACCCAUGUAGAUACUGCAC [Brourd's EX4 #2] (Eterna round: R97, puzzle: Brourd's mod of Exclusion 4) | – | – | – | 22.2 | 21.2 | – |
| AUAUAGCGAGGAUAUACAUGAGGAUCACCCAUGUGGUAGUAGAUACGGUAGAGAUAGUGUAGAAGGCGCUAUGA [EX3 #9] (Eterna round: R97, puzzle: Exclusion 3) | – | – | – | 226 | 233 | – |
| AUAUAGUCAGGAUAUCGAAAUAUAUAUUAAUAUAUAUAAUACGAGAAGGGACAUGAGGAUCACCCAUGUAGUAA [JR_Exclusion4)Sub001] (puzzle: Exclusion 4) | – | 23.7 | – | – | – | – |
| AUAUUGUGAGGAUAUGAACUUACUAUCGAAAGAUACUAAGUUCAGAAGGCACAUGAGGAUCACCCAUGUUUCUC [Long static hairpin v19] (Eterna round: R97, puzzle: Exclusion 4) | – | – | – | 664 | 76.1 | – |
| AUAUUGUGAGGAUAUGAACUUAGUAUGGAAAGAUACUAAGUUCAGAAGGCACAUGAGGAUCACCCAUGUUUCUC [Long static hairpin v12] (Eterna round: R97, puzzle: Exclusion 4) | – | – | – | 34 | 26.9 | – |
| AUAUUUAGCUUUUUGUGAAACAUGAGGAUCACCCAUGUCCUCAUAACUGGACAUUUAAGUCUAGAAGCUCGUCUUAU [Last end dangle 3] (Eterna round: R97, puzzle: Sensor, turn-off variant 1) | – | – | – | 475 | 553 | – |
| AUCAGCUCGUCAGGAUAUACAUGAGGAUCACCCAUGUGAUCAAUAGCAGCUUCGGCUGCAUUAAUGUAGAAGGGACGAGCUGAU [ENG2/5-B3] (Eterna round: R96, puzzle: Exclusion NG 2) | – | – | – | 175 | 407 | 75 |
| AUCAGCUCGUGAGGAUAUACAUGAGGAUCACCCAUGUGAUCAAUAGCAGCUUCGGCUGCAUACAUGUAGAAGGCACGAGCUGAU [ENG2/6-A3] (Eterna round: R96, puzzle: Exclusion NG 2) | – | – | – | 95.6 | 135 | 19.9 |
| AUCAGUCUAGAGGAUAUGCUGGAUUAAUAUCUGGCAGAAGGCUGGACAUGAGGAUCACCCAUGUAAAUACUACC [Omei Ex6 A4] (Eterna round: R97, puzzle: Exclusion 6) | – | – | – | 156 | 55 | – |
| AUCAUGCAGUAGGAUAUCGAUCCACAAUAUGAACGAGAAGGGCUGACAUGAGGAUCACCCAUGUGCGUCCGAAG [Becebe] (Eterna round: R97, puzzle: Exclusion 6) | – | – | – | 16.7 | 19 | – |
| AUCAUGUGAGGAUAUGUGAUCAACCUUCUAUAUAGAUGAUGACAGAAGGCACAUGAGGAUCACCCAUGUAGAUC [Ex4 - 3 - 20] (puzzle: Exclusion 4) | – | 45.1 | – | – | – | – |
| AUCCGGCAUGUAGGAUAUGGAUCCGAUUAGGAUCCAGAAGGACAUGAGGAUCACCCAUGUACAUGUAAACAGUCAUCACCGGAC [salish99_ExNG1_r04_201] (Eterna round: R96, puzzle: Exclusion NG 1) | – | – | – | 462 | 67.3 | 50.2 |
| AUCGUGCAGCAAAGCUGUACGAGUACAUGAGGAUCACCCAUGUAGGAUAUGGUACGCAAAGCGUGCUAGAAGGAUAUGAGAUUA [Mat - Exclusion NG 3 - Mod of JL - D97] (Eterna round: R96, puzzle: Exclusion NG 3) | – | – | – | 38.1 | 57.7 | 32.6 |
| AUCGUGCAGCUUUGCUGUACGAGUACAUGAGGAUCACCCAUGUAGGAUAUGGUACGCUUUGCGUGCCAGAAGGACGUGCGUUAG [salish99_ExNG3_r04_003] (Eterna round: R96, puzzle: Exclusion NG 3) | – | – | – | 63.2 | 43.7 | 34.3 |
| AUCGUGUGAGGAUAUCGAUGUUGGACGUCUAGGUCUAAGCGCGAGAAGGCACAUGAGGAUCACCCAUGUAAUGG [jl-ex4-4.27 ViennaUCT mod] (Eterna round: R97, puzzle: Exclusion 4) | – | – | – | 249 | 910 | – |
| AUGGGUCCUCACGGAGCUACAUGAGGAUCACCCAUGUGGAUUGAGGAUAUCCACUGCCGACGGCUGGAGAAGGCAGUUUACUGU [Ex NG3 #94] (Eterna round: R96, puzzle: Exclusion NG 3) | – | – | – | 57.5 | 49.9 | 36 |
